This note sets out measurements from PMC6389498.

The data set addresses PrfA WT (Listeria monocytogenes, UniProt P22262 1-237). Kind of data set: BLI; free L-Leu, PrfA:ligand 1:100, no inhibition. The note with it: protein: recombinant; tags: His-tag (pET28a); chain copies: 2; blunt.

Sequence of PrfA WT (P22262 whole entry): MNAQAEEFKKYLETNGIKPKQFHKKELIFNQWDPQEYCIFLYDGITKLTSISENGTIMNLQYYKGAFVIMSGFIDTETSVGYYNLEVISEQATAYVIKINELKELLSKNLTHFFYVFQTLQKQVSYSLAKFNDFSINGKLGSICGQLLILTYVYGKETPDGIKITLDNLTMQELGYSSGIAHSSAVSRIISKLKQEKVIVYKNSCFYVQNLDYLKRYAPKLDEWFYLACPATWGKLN

B1: PplcA/Phly PrfA box (Phlybox) (dsDNA)
DNA 1: TGTCCCTTTATCGTCGTTAACAAATGTTAATGCCTCGACA
DNA 2: TGTCGAGGCATTAACATTTGTTAACGACGATAAAGGGACA
Turning to B1, the binding result is reported as “binds”.
